# Measured values as given in publication PMC9374677.
# Target: MBP-TNFR1^ECD deletion mutant ΔCRD2 (human) (UniProt P19438)
# Test: ITC; MicroCal PEAQ-ITC, 16 °C; […] (500–600 μM) […] (~60 μM); 20 mM Tris-HCl pH 7.5, 200 mM NaCl; […]
substance,measurement,value
"Staphylococcal superantigen-like protein 10 (SSL10), residues 31-227, C-terminal 6xHis (from UniProt A0A0H3K6Z9 31-227) (natural protein)",Kd,30.3 µM
